From patent US20260008815A1, “CYCLIC PEPTIDE OR SALT THEREOF, AND USES THEREOF” (FUJIFILM Corporation, priority 2023, published 2026)
Numbered stars: 1 amine (or outer) side, 2 acyl side, 3 side chain; on linkers, the order of the positions; unused ones are H or OH. Bridge positions count the residues as written; N and C are the ends. Ends that are not written are not given here. acetyl = acetyl (haloacetyl before ring closure) on the side-chain amine, O=C(C[*:1])[*:2]; COCH2 = acetyl group that carries the bridge

Molecular target: T1, Recombinant Human FGFR2 alpha (IIIc) Fc Chimera Protein (Homo sapiens, UniProt P21802)
T1 construct: Fc (chimera); purchased R&D systems 712-FR-050
Assay: ELISA binding affinity of enzymatically synthesized peptide to FGFR
Details: ELISA luminescence signal at 10 nmol/L peptide, SEQ ID NO: 47 at 10 nmol/L standardized to 1; enzyme synthesis product
Summary of the method: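 FGFR2 alpha (IIIc) Fc chimera (5 ng/well) was immobilized, and Myc-tagged peptide was bound 3 h at room temperature, then detected with anti-Myc antibody (2 h) and chemiluminescent substrate. Signal was corrected against FGFR-free wells. Score A–D was the luminescence at 10 nmol/L peptide, normalized to cyclic peptide SEQ ID NO: 47.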

T1 sequence (P21802 with tags, fused parts or gaps limits assumed): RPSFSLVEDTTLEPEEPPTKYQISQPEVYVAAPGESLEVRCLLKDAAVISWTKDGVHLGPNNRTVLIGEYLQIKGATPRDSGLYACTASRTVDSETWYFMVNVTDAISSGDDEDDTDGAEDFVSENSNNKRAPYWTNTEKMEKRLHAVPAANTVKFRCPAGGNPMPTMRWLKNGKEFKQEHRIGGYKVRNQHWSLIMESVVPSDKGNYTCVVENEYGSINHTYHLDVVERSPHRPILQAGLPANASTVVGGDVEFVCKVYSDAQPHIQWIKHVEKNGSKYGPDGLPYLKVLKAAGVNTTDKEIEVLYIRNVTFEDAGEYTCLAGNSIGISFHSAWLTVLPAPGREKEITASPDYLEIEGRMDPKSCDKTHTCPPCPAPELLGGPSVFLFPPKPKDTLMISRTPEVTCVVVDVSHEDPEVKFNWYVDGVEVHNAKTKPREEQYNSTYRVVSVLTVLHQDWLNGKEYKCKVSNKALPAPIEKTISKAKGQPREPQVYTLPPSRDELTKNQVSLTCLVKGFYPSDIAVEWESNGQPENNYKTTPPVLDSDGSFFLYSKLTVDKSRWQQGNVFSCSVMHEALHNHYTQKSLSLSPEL

Evaluation result of binding affinity to FGFR | Substance
C (0.1 or more and less than 0.5) | 134 (LCADQYDYLLQYVFWRTYK(COCH2)I; thioether 2-19 (inferred)) [compound 134]
C (0.1 or more and less than 0.5) | 412 (QCEYALQYYRFYVAQRHWVDKL; Description of Artificial Sequence: Cyclic peptide) [compound 412]
A (0.7 or more) | 173 (YCEWNYLDPEQYQYFIYFK(COCH2)Y; thioether 2-19 (inferred)) [compound 173]
C (0.1 or more and less than 0.5) | 368 (QCLIQDLYAYIFK(COCH2)L; thioether 2-13) [compound 368]
C (0.1 or more and less than 0.5) | 182 (YCEEWYLDPEQYQYFIYFK(COCH2)Y; thioether 2-19 (inferred)) [compound 182]
A (0.7 or more) | 179 (YCERNYLDPEQYQYFIYFK(COCH2)Y; thioether 2-19 (inferred)) [compound 179]
A (0.7 or more) | 142 (WCEENYLDPEQYQYFIYFKY; Description of Artificial Sequence: Cyclic peptide) [compound 142]
A (0.7 or more) | 332 (YCEENYLDPEQYQYFAYFK(COCH2)Y; thioether 2-19 (inferred)) [compound 332]
C (0.1 or more and less than 0.5) | 69 (KCPQNFINPVQWRYFQHYAKN; not fully specified; also: cyclic peptide, ring places not shown) [compound 69]
C (0.1 or more and less than 0.5) | 393 (YCHENYLDPEQHQYFHYFK(COCH2)Y; thioether 2-19 (inferred)) [compound 393]
A (0.7 or more) | 259 (YCEENYLDPEQYIYFIYFK(COCH2)Y; thioether 2-19 (inferred)) [compound 259]
A (0.7 or more) | 88 (QCPQNFINPVQWRYLQHYK(COCH2)N; thioether 2-19 (inferred)) [compound 88]
C (0.1 or more and less than 0.5) | 101 (QCPQNFINPVQIRYFQHYK(COCH2)N; thioether 2-19 (inferred)) [compound 101]
A (0.7 or more) | 392 (YCHENYLDPEQYQYFHYFK(COCH2)Y; thioether 2-19 (inferred)) [compound 392]
A (0.7 or more) | 267 (YCEENYLDPEQYDYFIYFK(COCH2)Y; thioether 2-19) [compound 267]
A (0.7 or more) | 79 (NCPQNFINPVQWRYFQHYK(COCH2)N; thioether 2-19 (inferred)) [compound 79]
A (0.7 or more) | 215 (YCEENYLQPEQYQYFIYFK(COCH2)Y; thioether 2-19 (inferred)) [compound 215]
A (0.7 or more) | 195 (YCEENYIDPEQYQYFIYFK(COCH2)Y; thioether 2-19 (inferred)) [compound 195]
A (0.7 or more) | 281 (YCEENYLDPEQYQYFYYFK(COCH2)Y; thioether 2-19) [compound 281]
A (0.7 or more) | 126 (LCEINWLSQEQYGYFIEYK(COCH2)T; thioether 2-19 (inferred)) [compound 126]

Evaluation result of binding affinity to FGFR | Substance
A (0.7 or more) | 232 (YCEENYLDDEQYQYFIYFK(COCH2)Y; thioether 2-19 (inferred)) [compound 232]
C (0.1 or more and less than 0.5) | 99 (QCPQEFINPVQWRYFQHYK(COCH2)N; thioether 2-19) [compound 99]
A (0.7 or more) | 50 (ACGQNFYHPVQFHYFIAYKQ; Description of Artificial Sequence: Cyclic peptide) [compound 50]
A (0.7 or more) | 138 (LCEENYLDPEQYQYFIYFK(COCH2)Y; thioether 2-19 (inferred)) [compound 138]
B (0.5 or more and less than 0.7) | 386 (RCHHNFHHARQWGFFHHYK(COCH2)R; thioether 2-19 (inferred)) [compound 386]
A (0.7 or more) | 337 (YCEKNYLDPEQYQYFIYFK(COCH2)Y; thioether 2-19 (inferred)) [compound 337]
A (0.7 or more) | 301 (YCEENYLDPEQYQYFITFK(COCH2)Y; thioether 2-19 (inferred)) [compound 301]
C (0.1 or more and less than 0.5) | 427 (ECDTADYPQEWIQDVYQYLYK(COCH2)R; thioether 2-21 via acetyl) [compound 427]
A (0.7 or more) | 153 (YCLENYLDPEQYQYFIYFK(COCH2)Y; thioether 2-19 (inferred)) [compound 153]
C (0.1 or more and less than 0.5) | 253 (YCEENYLDPEQIQYFIYFK(COCH2)Y; thioether 2-19 (inferred)) [compound 253]
A (0.7 or more) | 130 (HCDGNWWNSQQFFYLLLYK(COCH2)H; thioether 2-19 (inferred)) [compound 130]
A (0.7 or more) | 137 (PCEENYLDPEQYQYFIYFK(COCH2)Y; thioether 2-19 (inferred)) [compound 137]
C (0.1 or more and less than 0.5) | 357 (YCEENYLDPEQYQMFIYFK(COCH2)Y; thioether 2-19) [compound 357]
C (0.1 or more and less than 0.5) | 371 (DCQLWYLYQYLIVK(COCH2)A; thioether 2-14) [compound 371]
A (0.7 or more) | 61 (KCPQNFINPAQWRYFQHYK(COCH2)N; thioether 2-19 (inferred)) [compound 61]
B (0.5 or more and less than 0.7) | 70 (KCAPQNFINPVQWRYFQHYK(COCH2)N; thioether 2-20 (inferred)) [compound 70]
A (0.7 or more) | 257 (YCEENYLDPEQYGYFIYFK(COCH2)Y; thioether 2-19 (inferred)) [compound 257]
A (0.7 or more) | 331 (YCEENYLDPEQYAYFIYFK(COCH2)Y; thioether 2-19 (inferred)) [compound 331]
A (0.7 or more) | 125 (YCRDNYFYLEQWQYLYLYK(COCH2)H; thioether 2-19 (inferred)) [compound 125]
A (0.7 or more) | 306 (YCEENYLDPEQYQYFIYYK(COCH2)Y; thioether 2-19 (inferred)) [compound 306]

Evaluation result of binding affinity to FGFR | Substance
A (0.7 or more) | 305 (YCEENYLDPEQYQYFIHFK(COCH2)Y; thioether 2-19 (inferred)) [compound 305]
A (0.7 or more) | 329 (YCEENYLDAEQYQYFIYFK(COCH2)Y; thioether 2-19 (inferred)) [compound 329]
C (0.1 or more and less than 0.5) | 432 (CENYLDPEQYQYFHYFK(COCH2)Y; thioether 1-17 via acetyl) [compound 432]
A (0.7 or more) | 402 (PCEVYNYWYPTQWFFFTQFK(COCH2)K; thioether 2-20 (inferred)) [compound 402]
A (0.7 or more) | 119 (QCRYFWQYVLERYRVRLPK(COCH2)E; thioether 2-19 (inferred)) [compound 119]
A (0.7 or more) | 156 (YCFENYLDPEQYQYFIYFK(COCH2)Y; thioether 2-19 (inferred)) [compound 156]
A (0.7 or more) | 159 (YCNENYLDPEQYQYFIYFK(COCH2)Y; thioether 2-19 (inferred)) [compound 159]
A (0.7 or more) | 289 (YCEENYLDPEQYQYFRYFK(COCH2)Y; thioether 2-19) [compound 289]
A (0.7 or more) | 341 (YCEENYLDKEQYQYFIYFK(COCH2)Y; thioether 2-19) [compound 341]
A (0.7 or more) | 167 (YCEPNYLDPEQYQYFIYFK(COCH2)Y; thioether 2-19 (inferred)) [compound 167]
A (0.7 or more) | 114 (YCTDNYIDDIQFWYLFLYK(COCH2)H; thioether 2-19 (inferred)) [compound 114]
A (0.7 or more) | 278 (YCEENYLDPEQYQYFLYFK(COCH2)Y; thioether 2-19) [compound 278]
A (0.7 or more) | 290 (YCEENYLDPEQYQYFHYFK(COCH2)Y; thioether 2-19) [compound 290]
A (0.7 or more) | 168 (YCELNYLDPEQYQYFIYFK(COCH2)Y; thioether 2-19 (inferred)) [compound 168]
C (0.1 or more and less than 0.5) | 376 (QCIQDLYLYLYFLK(COCH2)T; thioether 2-14 (inferred)) [compound 376]
A (0.7 or more) | 155 (YCVENYLDPEQYQYFIYFK(COCH2)Y; thioether 2-19 (inferred)) [compound 155]
A (0.7 or more) | 334 (YCEENYLDPEQYQYFIYFK(COCH2)A; thioether 2-19 (inferred)) [compound 334]
C (0.1 or more and less than 0.5) | 417 (LCQIYLYLTALQQGFEDFYPK(COCH2)N; thioether 2-21 via acetyl) [compound 417]
